Assay results as given in article PMC5585171.

Molecular target: Medicago truncatula L-histidinol dehydrogenase (Medicago truncatula)
Experiment: SEC; HiLoad Superdex 200 16/60; 25 mM Hepes-NaOH pH 7.5, 100 mM KCl, 50 mM NaCl, 1 mM TCEP; data not shown

stoichiometry N: 2
Substance: Medicago truncatula L-histidinol dehydrogenase (enzyme)
